Measured values: the RNAGym collection of RNA variant scans (doi:10.7554/elife.80360)

B1: HDV Ribozyme (parent)
chain: GGCCGGCAUGGUCCCAGCCUCCUCGCUGGCGCCGGCUGGGCAACAUUCCGAGGGGACCGUCCCCUCGGUAAUGGCGAAUGGGACCCA

Variants of: B1
Test: self-cleavage, relative activity (ratio to wild type); higher = more cleavage; co-transcriptional

| Variant | self-cleavage |
| --- | --- |
| GGCCGGCAUGGUCCCAGCCUACUCGCUGGCGCCGGCUGGGCAACAUUCCGAGGGGACCGUCCCAUCGGUAAUGGCGAAUGGGACCCA | 0.0692 |
| GGCCGGCAUGGUCCCAGCCUACUCGCUGGCGCCGGCUGGGCAACAUUCCGAGGGGACCGUCCCUUCGGUAAUGGCGAAUGGGACCCA | 0.0852 |
| GGCCGGCAUGGUCCCAGCCUACUCGCUGGCGCCGGCUGGGCAACAUUCCGAGGGGACCGUCCCGUCGGUAAUGGCGAAUGGGACCCA | 0.0604 |
| GGCCGGCAUGGUCCCAGCCUACUCGCUGGCGCCGGCUGGGCAACAUUCCGAGGGGACCGUCCCCGCGGUAAUGGCGAAUGGGACCCA | 0.0665 |
| GGCCGGCAUGGUCCCAGCCUACUCGCUGGCGCCGGCUGGGCAACAUUCCGAGGGGACCGUCCCCCCGGUAAUGGCGAAUGGGACCCA | 0.0583 |
| GGCCGGCAUGGUCCCAGCCUACUCGCUGGCGCCGGCUGGGCAACAUUCCGAUGGGACCGUCCCCUCGGUAAUGGCGAAUGGGACCCA | 0.107 |
| GGCCGGCAUGGUCCCAGCCUACUCGCUGGCGCCGGCUGGGCAACAUUCCGACGGGACCGUCCCCUCGGUAAUGGCGAAUGGGACCCA | 0.125 |
| GGCCGGCAUGGUCCCAGCCUACUCGCUGGCGCCGGCUGGGCAACAUUCCAAGGGGACCGUCCCCUCGGUAAUGGCGAAUGGGACCCA | 0.111 |
| GGCCGGCAUGGUCCCAGCCUACUCGCUGGCGCCGGCUGGGCAACAUUCCGAGGGGACCGUCCCCUCGGUAAUGGCGAAUUGGACCCA | 0.0622 |
| GGCCGGCAUGGUCCCAGCCUACUCGCUGGCGCCGGCUGGGCAACAUUCCGAGGGGACCGUCCCCUCGGUAAUGGCGAAUAGGACCCA | 0.0289 |
| GGCCGGCAUGGUCCCAGCCUACUCGCUGGCGCCGGCUGGGCAACAUUCCGAGGGGACCGUCCCCUCGGUAAUGGCGAAUGGGACCUA | 0.0308 |
| GGCCGGCAUGGUCCCAGCCUACUCGCUGGCGCCGGCUGGGCAACAUUCCGAGGGGACCGUCCCCUCGGUAAUGGCGAAUGGGACCGA | 0.111 |
| GGCCGGCAUGGUCCCAGCCUACUCGCUGGCGCCGGCUGGGCAACAUUCCGAGGGGACCGUCCCCUCGGUAAUGGCGAAUGGGACCAA | 0.0563 |
| GGCCGGCAUGGUCCCAGCCUGCUCGCUGGCGCCGGCUGGGCAACAUUCCGAGGGGUCCGUCCCCUCGGUAAUGGCGAAUGGGACCCA | 0.116 |
| GGCCGGCAUGGUCCCAGCCUGCUCGCUGGCGCCGGCUGGGCAACAUUCCGAGGGGGCCGUCCCCUCGGUAAUGGCGAAUGGGACCCA | 0.0791 |
| GGCCGGCAUGGUCCCAGCCUACUCGCUGGCGCCGGCUGGGCAACAUUCCGAGGGGACCGUCCCCUCGGUAAUGGCGAAUGCGACCCA | 0.0923 |

| Variant | self-cleavage |
| --- | --- |
| GGCCGGCAUGGUCCCAGCCUACUCGCUGGCGCCGGCUGGGCAACAUUCCGAGGGGACCGUCCCCUCGUUAAUGGCGAAUGGGACCCA | 0.0432 |
| GGCCGGCAUGGUCCCAGCCUACUCGCUGGCGCCGGCUGGGCAACAUUCCGAGGGGACCGUCCCCUCGAUAAUGGCGAAUGGGACCCA | 0.0779 |
| GGCCGGCAUGGUCCCAGCCUACUCGCUGGCGCCGGCUGGGCAACAUUCCGAGGGGACCGGCCCCUCGGUAAUGGCGAAUGGGACCCA | 0.138 |
| GGCCGGCAUGGUCCCAGCCUACUCGCUGGCGCCGGCUGGGCAACAUUCCGAGGGGACCGUCCCCUCGGUAAUGGCUAAUGGGACCCA | 0.0906 |
| GGCCGGCAUGGUCCCAGCCUACUCGCUGGCGCCGGCUGGGCAACAUUCCGAGGGGACCGUCCCCUCGGUAAUGGCCAAUGGGACCCA | 0.0997 |
| GGCCGGCAUGGUCCCAGCCUACUCGCUGGCGCCGGCUGGGCAACAUUCCGAGGGGACCGUCCCCUCGGUAAUGGCAAAUGGGACCCA | 0.256 |
| GGCCGGCAUGGUCCCAGCCUACUCGCUGGCGCCGGCUGGUCAACAUUCCGAGGGGACCGUCCCCUCGGUAAUGGCGAAUGGGACCCA | 0.134 |
| GGCCGGCAUGGUCCCAGCCUGCUCGCUGGCGCCGGCUGGGCAACCUUCCGAGGGGACCGUCCCCUCGGUAAUGGCGAAUGGGACCCA | 0.18 |
| GGCCGGCAUGGUCCCAGCCUGCUCGCUGGCGCCGGCUGGGCAACUUUCCGAGGGGACCGUCCCCUCGGUAAUGGCGAAUGGGACCCA | 0.0405 |
| GGCCGGCAUGGUCCCAGCCUGCUCGCUGGCGCCGGCUGGGCAACAUUCCGAGGGGACCGUCCCCUCGGUAAUGGCGAAUGGGACCCA | 0.0702 |
| GGCCGGCAUGGUCCCAGCCUACUCGCUGGCGCCGGCUGGGCAACAUUCCGAGGGGACCGUCCCCUGGGUAAUGGCGAAUGGGACCCA | 0 |
| GGCCGGCAUGGUCCCAGCCUACGCGCUGGCGCCGGCUGGGCAACAUUCCGAGGGGACCGUCCCCUCGGUAAUGGCGAAUGGGACCCA | 0.125 |
| GGCCGGCAUGGUCCCAGCCUACCCGCUGGCGCCGGCUGGGCAACAUUCCGAGGGGACCGUCCCCUCGGUAAUGGCGAAUGGGACCCA | 0.0755 |
| GGCCGGCAUGGUCCCAGCCUACUCGCUGGCGCCGGCUGAGCAACAUUCCGAGGGGACCGUCCCCUCGGUAAUGGCGAAUGGGACCCA | 0.0277 |
| GGCCGGCAUGGUCCCAGCCUACUCGCUGGCGCCGGCUGCGCAACAUUCCGAGGGGACCGUCCCCUCGGUAAUGGCGAAUGGGACCCA | 0.113 |
| GGCCGGCAUGGUCCCAGCCUGCUCGCUGGCGCCGGCUGGGCUACAUUCCGAGGGGACCGUCCCCUCGGUAAUGGCGAAUGGGACCCA | 0.0437 |
